Read-outs that look alike come from different tables or passages of the source. Values belong to the molecule of their own block, whether it stands above or below them.
Columns and labels:
[1] = molecular target: T1, recombinant human PD-1 Fc chimera (human, UniProt Q15116 25-167); experiment: HTRF inhibition assay: strep tagged human PD-L1 binding to recombinant human PD-1 (PD-L1 by legend paragraph 65; the sheet's title reads PD1:PDL2); the target of the control antibody is not given
T1 construct: Bought (R&D 1086-PD); Labelled with europium cryptate in the PD-L2 HTRF assay; also called human PD-1 (R&D Systems cat no. 1086-PD); human PD-1-huFc; not shown: human Fc of the bought chimera

[2] = molecular target: T1, recombinant human PD-1 Fc chimera; experiment: HTRF inhibition assay: biotinylated PD-L2-Fc binding to Europium cryptate labelled human PD-1-Fc; the target of the control antibody is not given
[3] = molecular target: human PD-1 expressed on cells (CHO human PD-1 cells) (human) (UniProt Q15116)
[4] = molecular target: human PD-1 expressed on cells (CHO human PD-1 cells) (human) (UniProt Q15116); remark: listed apart in the source
[5] = molecular target: T2, mouse PD1 (R&D Systems cat no. 1021-PD) (mouse, UniProt Q02242 25-167); experiment: HTRF binding assay on mouse PD-1
T2 construct: bought recombinant protein; also called mouse PD-1 protein
T2 sequence (looked up): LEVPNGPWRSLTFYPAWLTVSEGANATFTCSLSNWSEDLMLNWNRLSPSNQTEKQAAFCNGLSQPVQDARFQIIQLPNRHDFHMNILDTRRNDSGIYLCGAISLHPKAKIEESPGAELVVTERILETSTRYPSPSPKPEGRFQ
Experimental: (§1) Purified VH were tested for their ability to bind to human PD-1 (R&D Systems cat no. 1086-PD), cynomolgus PD-1 (Acro Biosystems cat no. PD1-C5254) and mouse PD1 (R&D Systems cat no. 1021-PD) in an HTRF Binding assay format. All reagents and serially diluted VH were prepared in assay buffer containing PBS, 0.1% BSA and 0.4M Potassium Fluoride. Samples or assay buffer (non-specific binding) were incubated with 2 nM human/cynomolgus or mouse PD-1, 1 nM Anti human-Fc Cryptate PAb (Cisbio cat. no. 61HFCKLB) and 30 nM anti His-D2 (CisBio cat no 61HISDLA) in black 384-shallow well assay plates for a minimum of 3 hours at room temperature. Time-resolved fluorescent emission at 620 nm and 665 nm was measured following excitation at 337 nm on the BMG PHERAstar plate reader. The HTRF ratio were calculated ((665 nm emission/620 nm emission)*10000) and the data corrected for (non-specific binding) to give the specific binding signal.

[6] = molecular target: T3, human PD-1 expressed on cells (CHO human PD-1 cells) (human, UniProt Q15116 21-288); experiment: FMAT epitope competition on CHO human PD-1 cells; competitor 2 nM 2.1-Strep tagged protein
T3 construct: CHO cells in the FMAT assays; Jurkat reporter cells in the reporter assay; primary CD4+ T cells in the mixed lymphocyte reaction; also called CHO TREX human PD1 cell line; CHO PD-1
Experimental: (§2) For the epitope competition assay reagents were prepared in FMAT assay buffer. […] Plates were incubated for a minimum of 1.5 hours at room temperature then fluorescence measured in the FL2 (502 nm-537 nm) and FL5 (677-800 nm) channels on the Mirrorball plate reader (TTP) following excitation at 488 nm and 640 nm. Data was expressed as a % of the total binding control (i.e. % control) after subtraction of the background signal determined from the non-specific binding control wells.

[7] = molecular target: T1, recombinant human PD-1 Fc chimera; experiment: HTRF binding assay, His-tagged VH on 2 nM recombinant PD-1
Experimental: as §1

[8] = molecular target: T4, cynomolgus PD-1 (Acro Biosystems cat no. PD1-C5254) (cynomolgus, UniProt B0LAJ3 25-170); experiment: as above
T4 construct: bought recombinant protein; also called cyno PD-1; cynomolgus PD-1 recombinant protein; not shown: Human Fc tag of the vendor's construct, and any linker to it; The Fc is implied by detection with anti human-Fc cryptate
Experimental: as §1

[9] = molecular target: T1, recombinant human PD-1 Fc chimera; experiment: HTRF inhibition assay: strep tagged human PD-L1 binding to recombinant human PD-1 (PD-L1 by legend paragraph 65; the sheet's title reads PD1:PDL2)
Experimental: All samples and reagents were prepared in HTRF assay buffer containing PBS, 0.1% (w/v) BSA and 0.4M Potassium Fluoride. […] Total binding controls containing periplasmic extract sample buffer and non-specific binding controls containing excess untagged competitor were set up on each plate for data normalisation. Time-resolved fluorescent emission at 620 nm and 665 nm was measured following excitation at 337 nm on the BMG PHERAstar plate reader. Data was expressed as a % of the total binding control (% control) after subtraction of the background signal determined from the non-specific binding control wells.

[10] = molecular target: T1, recombinant human PD-1 Fc chimera; experiment: BLI (Octet), PD-1-huFc on biosensor, 1:1 fit
Experimental: Binding kinetics of clones to human PD-1-huFc were measured in real-time bio-layer interferometer based biosensor Octet (ForteBio). Recombinant human PD-1-huFc was either immobilized by standard amine coupling to amine reactive biosensors in 10 mM sodium acetate at pH 5.0 or capture by protein G biosensors (ForteBio). All the binding studies were performed in HBS-ET Octet kinetics buffer. Biosensors were always washed in Octet kinetics buffer in between different steps. A seven point, two-fold dilution series of each Humabody® VH was made with a top concentration in range 100-30 nM. The contact time for each of the association steps was varied between 180-300 seconds and the dissociation step was varied between 400-600 seconds. Kinetic association (kₐ) and dissociation (kd) rate constants were determined by processing and fitting the data to a 1:1 binding model using ForteBio Analysis software.

[11] = molecular target: T3, human PD-1 expressed on cells (CHO …); experiment: FMAT epitope competition on CHO human PD-1 cells; competitor 2 nM 1.1-Strep tagged protein
Experimental: as §2

[12] = molecular target: T3, human PD-1 expressed on cells (CHO …); experiment: FMAT binding assay on CHO human PD-1 cells, detection by anti-His
Description: Plates were read in the FL2 (502 nm-537 nm) and FL5 (677-800 nm) channels on the TTP Mirrorball plate reader following excitation at 488 nm and 640 nm. Data was gated on FL5 perimeter and peak intensity and the FL2 median mean fluorescence intensity of the gated data used for determination of VH binding.

[13] = molecular target: human PD-1 expressed on cells (CHO human PD-1 cells) (human) (UniProt Q15116); remark: listed apart in the source
[14] = molecular target: T2, mouse PD1 (R&D Systems cat no. 1021-PD); experiment: HTRF binding assay, 2 nM mouse PD-1
[15] = molecular target: T3, human PD-1 expressed on cells (CHO …); experiment: FMAT, His-tagged VH on CHO human PD-1 cells
[16] = molecular target: T3, human PD-1 expressed on cells (CHO …); experiment: cell-based or functional assay

T3 sequence (Q15116 21-288): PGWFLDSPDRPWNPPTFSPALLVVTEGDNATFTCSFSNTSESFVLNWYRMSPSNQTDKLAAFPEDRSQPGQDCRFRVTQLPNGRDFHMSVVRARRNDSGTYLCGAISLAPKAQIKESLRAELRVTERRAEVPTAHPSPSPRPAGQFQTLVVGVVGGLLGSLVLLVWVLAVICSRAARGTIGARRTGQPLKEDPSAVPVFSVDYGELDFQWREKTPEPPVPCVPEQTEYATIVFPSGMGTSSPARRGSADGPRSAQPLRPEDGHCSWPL
Chain of human PD-1 expressed on cells (CHO human PD-1 cells) (human) (Q15116 21-288): as above
T4 sequence (B0LAJ3 entry or part of it limits assumed): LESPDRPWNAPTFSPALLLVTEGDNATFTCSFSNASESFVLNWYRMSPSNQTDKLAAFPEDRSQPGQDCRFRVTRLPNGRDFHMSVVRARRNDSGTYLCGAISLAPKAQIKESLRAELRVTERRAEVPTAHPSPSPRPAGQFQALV
T1 sequence (Q15116 25-167, change not shown): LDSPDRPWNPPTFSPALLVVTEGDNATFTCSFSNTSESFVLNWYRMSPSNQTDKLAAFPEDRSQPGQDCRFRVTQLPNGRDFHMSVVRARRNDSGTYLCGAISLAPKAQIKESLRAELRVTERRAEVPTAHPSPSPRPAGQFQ

IC50 (read off the curve) [1]: 300 pM
IC50 (read off the curve) [2]: 300 pM
Molecule: Control anitbody (antibody)

EC50 (read off the curve), NFAT-luciferase reporter [3]: 20 nM
EC50 (read off the curve), NFAT-luciferase reporter [4]: 5 nM
Molecule: Control

binding result [5]: no binding
IC50 [6]: 3.6 nM
EC50 [7]: 0.5 nM
EC50 [8]: 0.6 nM
IC50 (read off the curve) [9]: ~2 nM
Kd [10]: 1.9 nM
kon [10]: 450000 M⁻¹ s⁻¹
IC50 [11]: 3.5 nM
EC50 (read off the curve) [12]: ~500 pM
B1: VH single domain antibody 1.1 (VHH)
VHH: EVQLLESGGGSVQPGRSLRLSCAASGFTFDDHAMHWVRQAPGKGLEWVSGISWNSGSMGYADSVKDRFTISRDNAKSSLYLQMNSLRAEDTALYYCVREKGPGLTGSTADYYGLDVWGQGTMVTVSS
notes: human VH single domain antibody (Humabody), purified through its C-terminal His tag; also called Humabody 1.1; clone 1.1

EC50 (read off the curve) [12]: ~700 pM
B2: 1.21 (VHH)
VHH: EVQLVESGGGLVQPGRSLRLSCAASGFTFDDYAMHWVRQAPGKDLEWVSGISWNGGSMGYAASVKGRFTISRDNAKNSLYLQMNSLRAEDTALYYCVREKGPGLTGSTADYYGLDVWGQGTMVTVSS
notes: also called VH single domain antibody 1.21; Humabody VH 1.21

binding result [5]: no binding
EC50 [7]: 0.9 nM
EC50 [8]: 1.1 nM
IC50 (read off the curve) [9]: ~5 nM
B3: VH single domain antibody 1.2 (VHH)
VHH: EVQLVESGGGLVQPGRSLRLSCAASGFTFDDYAMHWVRQAPGKDLEWVSGISWNGGSMGYAASVKGRFTISRDNAKNSLYLQMNSLRAEDTALYYCVKDKGPGLIGSTADYYGLDVWGQGTTVTVSS
notes: human VH single domain antibody

EC50 (read off the curve), NFAT-luciferase reporter [13]: 2 nM
B4: Blocking VH-4GS-1.39 (protein, part only; not given: 4GS linker, part only)
VH(A)-linker-VH, part: EVQLVESGGGLVKPGGSLRLSCAASGFTFSDESMTWMRQAPGKGLEWVSYISSGGGVKFYADSVKGRFTISRDNAKNSLYLQMNSLRAEDTAVYYCAREAPLRLGESPHDAFDISGQGTMVTVSSEVQLVESGGGLVQPGRSLRLSCAASGFTFDDYALHWVRQAPGKDLEWVSGISWNGGSYGYADSVKGRFTISRDNAKNSLYLQMNSLRAEDTALYYCVREKGPGLTGSTADYYGLDAWGQGTMVTVSS

IC50 [6]: 9.4 nM
EC50 [7]: 3.3 nM
EC50 [8]: 6.3 nM
binding result [14]: no binding
Kd [10]: 2.6 nM
koff [10]: 0.0015 s⁻¹
kon [10]: 590000 M⁻¹ s⁻¹
IC50 [11]: 9.2 nM
EC50 [15]: 0.7 nM
B5: VH single domain antibody 2.1 (VHH)
VHH: EVQLVESGGGVVRPGGSLRLSCAASGFTFDDYAMSWVRQAPGKGLEWVSGITWNGGSTGYADSVKDRFTISRDNAKNSLYLQMNSLRAEDTALYYCVRDKYSYAWSYDGFDIWGQGTMVTVSS
notes: human VH single domain antibody; also called Humabody VH 2.1; clone 2.1

EC50 (read off the curve), NFAT-luciferase reporter [16]: ~20 nM
B6: Blocking VH (VHH)
VHH: EVQLVESGGGLVKPGGSLRLSCAASGFTFSDESMTWMRQAPGKGLEWVSYISSGGGVKFYADSVKGRFTISRDNAKNSLYLQMNSLRAEDTAVYYCAREAPLRLGESPHDAFDISGQGTMVTVSS

EC50 (read off the curve), NFAT-luciferase reporter [13]: 1 nM
B7: Blocking VH-4GS-2.12 (protein, part only; not given: 4GS linker, part only)
VH(A)-linker-VH, part: EVQLVESGGGLVKPGGSLRLSCAASGFTFSDESMTWMRQAPGKGLEWVSYISSGGGVKFYADSVKGRFTISRDNAKNSLYLQMNSLRAEDTAVYYCAREAPLRLGESPHDAFDISGQGTMVTVSSEVQLVESGGGVVRPGGSLRLSCAASGFTFDDYAMSWVRQAPGKGLEWVSGITWNAGSTGYADSVKGRFTISRDNAKNSLYLQMNSLRAEDTALYYCVRDKYSYAWSYDDFDIWGQGTMVTVSS

— US20200239570A1 (CRESCENDO BIOLOGICS, published 2020)
